# Experimental data as given in the RNAGym collection of RNA variant scans (doi:10.1073/pnas.2313332121).
# Fewer inactive variants are shown than the library holds.
# B1: TPR 5TU (parent)
# chain: GGAUCUUCUCGAUCUAACAAAAAAGACAAAUCUGCCACAAAGCUUGAGAGCAUCUUCGGAUGCAGAGGCGGCAGCCUUCGGUGGCGCGAUAGCGCCAACGUUCUCAACUAUGACACGCAAAACGCGUGCUCCGUUGAAUGGAGUUUAUCAUG
# Variants of: B1
# Experiment: polymerase ribozyme fitness, log enrichment relative to wild type (log ratio); higher = more active; in vitro selection for triplet polymerase activity
# In short: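 For each subunit of a heterodimeric triplet polymerase ribozyme, a mutant library was built by PCR and transcribed, then taken through a single in vitro selection round in triplicate. Selection involved annealing to a biotinylated primer, the partner subunit and triplets, incubation frozen at −7 °C, gel excision of extended constructs, capture on streptavidin beads and RT-PCR. Genotypes were retained after Illumina sequencing of inputs and outputs only with ≥10 input reads and ≥1 read in each output. Fitness is defined as the logarithm of a genotype's enrichment relative to wild-type enrichment, using inverse-variance-weighted averages across replicates, with the logarithm taken to base 2.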
row,Variant,polymerase ribozyme fitness (log ratio)
1,U56C U78G G80A G84C,≤ -4.2
2,C95U A142G,-1.66
3,C51U A52G A60U A66G C103U A107U C114U C123G G143A,≤ -4.2
4,C10A A41G C103A A110G,≤ -4.2
5,A138U,-3.87
6,C85A G92U C131G G152C,≤ -4.2
7,C8U C27U A115G,-4.06
8,A22U C69A A91U,≤ -4.2
9,U55A A106C C125G,-1.63
10,U55G C57G C95U C96A C118G,-2.53
11,C32G C38G C93G G133U,-3.72
12,U53A C63A A66G G67A G84A A97G,≤ -4.2
13,C32A A91U C99U A120C,≤ -4.2
14,U7G A21C C36U C54U C79G G83A U144A,≤ -4.2
15,G59C G81C G84C,≤ -4.2
16,A30C C93A A97G,≤ -4.2
17,U31G A122U A142C,-1.56
18,U4C A16G A21G A41C A49U U56A G86A U135A A150G,≤ -4.2
19,U33A G46A G59A C103A A115G,-4.12
20,A37G A91C A138C G140U,≤ -4.2
21,G84U U102C C149G,≤ -4.2

row,Variant,polymerase ribozyme fitness (log ratio)
1,G34A A37C C43U C125G U130A C149A,≤ -4.2
2,A20G C54G C96U,-2
3,U13G A122C A142C,-2.05
4,G34A C43A G92U C118U,≤ -4.2
5,U45A U55A U61A C63A U77A C131A A150G U151A,≤ -4.2
6,G58A U82C A147C C149G,≤ -4.2
7,G50A C51A C114U U134C G136A U151G,≤ -4.2
8,C32U G42U C79G C129A A138G U146C,≤ -4.2
9,G68U C103U G141C,≤ -4.2
10,C8U C27G A40G U78G C85G A98C A150G,≤ -4.2
11,G140U,-2.62
12,C87U C132G,-3.72
13,A47U U56A C99G A121C,-2.02
14,C27G A28C A41U A91G C93U,≤ -4.2
15,U45A G88C,≤ -4.2
16,A113C U134C A137C G140A U148G,≤ -4.2
17,U9G A29C C32G G58C C76A C79A C118G G141C G143A,≤ -4.2
18,C54A G94C A138C,≤ -4.2
19,A21U G34A C69A C132G,≤ -4.2
20,A21U A29U U33G C35U G81U G84A,-4.1
21,C5U C8G A23U U45A G84C,≤ -4.2

row,Variant,polymerase ribozyme fitness (log ratio)
1,A52G C125U,-0.198
2,A20U A49G C85U A110G U148A,≤ -4.2
3,U31C G84A,0.831
4,A29G U45C A52C U53G U134C G136U,≤ -4.2
5,C5A C57U C85U,0.39
6,A17G A30G C36A C99A,≤ -4.2
7,A30U A52G U56G G80C G84U A98C A110U,≤ -4.2
8,C96U U144G,-0.238
9,U31A C54G C57A C85G C123U,-3.47
10,U7A G11A A41G A66C U77C C85U A106C U151A,≤ -4.2
11,C93A C95G,≤ -4.2
12,C72U G126U,-0.101
13,G42A C93A U102G U135A,≤ -4.2
14,C8A A16G G50U G83C U135C G136C,≤ -4.2
15,G92U C118A,-1.05
16,A29U C36U,≤ -4.2
17,G92C U101G,-0.874
18,A22G A39C U56A G80U,≤ -4.2
19,U45A A142G,-2.94
20,A24U C54A G86A,-3.38
21,C5A A21G G88C,-4.09

row,Variant,polymerase ribozyme fitness (log ratio)
1,A39G C57G C105G A147U,-3.4
2,A3C U13G A23U C87U A91U C96U,≤ -4.2
3,A16C G42U U56C G81U C85G,≤ -4.2
4,A37C A49C C57G C75U A137U G141C,≤ -4.2
5,A21C U55G G83U,-0.166
6,A3G C38A G124C U134G G136U U146G,≤ -4.2
7,A26C U55A C75A G80C G94A C105A,≤ -4.2
8,C149A,-3.33
9,A23U U56G G58C G74C G88U,≤ -4.2
10,C54A A91U,≤ -4.2
11,A28U G74A C85U A91U,≤ -4.2
12,C57U C96G U130A,-3.15
13,A60U C85U U148C,-3.17
14,C75G C93U,-3.74
15,A19U C43G C54G A91G,≤ -4.2
16,U53A A97C,-0.583
17,C51A U55G G58U C95A,-1.74
18,A17G C99U,-0.271
19,A26U A49U G68U C72U G84A G86U G112A A122G,≤ -4.2
20,U44A A49C,-4.06
21,A40C U55A U104C,-0.475
